From paper doi:10.1101/426809 come the findings set out here.

Series [1] deals with HupA-HaloTag (HupA fused through a GS linker to HaloTag with a C-terminal 6xHis tag) (Clostridium difficile 630Δerm). In words: cross-linking.
Series [2] addresses HupA-LgBiT (HupA fused to the large subunit of the bitLuc^opt split luciferase) (Clostridium difficile 630Δerm). In words: split reporter.
In series [3] the target is HupA_(6xHis), C. difficile HupA (CD3496) with a 6x histidine tag (Clostridium difficile 630Δerm). Put plainly: cross-linking.
The target is the same in series [4]. Put plainly: cross-linking. This is another data set of the same source.
Series [5] addresses T1, HupAQED6xHis (Clostridium difficile 630Δerm, UniProt Q180Z4 1-92, R55Q;R58E;R61D).
T1 sequence: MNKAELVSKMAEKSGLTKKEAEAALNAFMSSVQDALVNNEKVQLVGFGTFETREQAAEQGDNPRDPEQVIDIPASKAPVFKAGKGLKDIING
In words: EMSA.

Like-named read-outs stand apart in the source and are kept apart here.

The stoichiometry N is the number of molecules, sites or subunits per partner or assembly. With “HupA-HaloTag (HupA fused through a GS linker to HaloTag with a C-terminal 6xHis tag) (natural protein)”, the stoichiometry N in series [1] worked out at 2.
In series [2], “HupA-SmBiT (HupA fused to the small subunit of the bitLuc^opt split luciferase) (natural protein)” came in with a luciferase activity (LU/OD) after 1 h of induction of 265000 LU/OD.
As to “HupA_(6xHis), C. difficile HupA (CD3496) with a 6x histidine tag (natural protein)”, the stoichiometry N in series [3] and in series [4] was 2 in each case.

B1: oAF65/oAF66, 28.9% G+C (dsDNA)
DNA 1: CATTAAGTATGAGTATTCTATGTATAGATCATTGATGC
DNA 2: GCATCAATGATCTATACATAGAATACTCATACTTAATG
For B1, the binding result in series [5] is “no binding”.

B2: oAF63/oAF64, 52.6% G+C (dsDNA)
DNA 1: CATCAGGCAAGAGTAGTCACTGTGTAGCTCGTGGATGC
DNA 2: GCATCCACGAGCTACACAGTGACTACTCTTGCCTGATG
In the case of B2, the binding result in series [5] was “no binding”.

B3: oAF61/oAF62, 71.1% G+C (dsDNA)
DNA 1: CGCCAGGCCAGGGCTGTCACTGTGCAGCTCGTGGACGC
DNA 2: GCGTCCACGAGCTGCACAGTGACAGCCCTGGCCTGGCG
Consider B3, for which the binding result in series [5] was “no binding”.
